Measured values as given in publication PMC6954902 (Protein & Cell, 2019).

Target: T1, MtEccCb1-ATPase3 (ATPase3 domain of EccCb1 from Mycobacterium tuberculosis, residues 315-591) (Mycobacterium tuberculosis H37Rv, UniProt P9WNB1 315-591)
T1 sequence: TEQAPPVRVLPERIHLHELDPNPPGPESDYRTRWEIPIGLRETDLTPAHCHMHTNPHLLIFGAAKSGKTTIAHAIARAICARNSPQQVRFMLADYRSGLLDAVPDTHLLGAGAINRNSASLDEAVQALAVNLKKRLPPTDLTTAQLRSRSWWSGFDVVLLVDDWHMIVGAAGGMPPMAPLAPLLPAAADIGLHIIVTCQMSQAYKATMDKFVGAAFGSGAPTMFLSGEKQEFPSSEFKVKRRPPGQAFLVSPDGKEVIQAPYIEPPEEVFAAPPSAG
Test: ITC
Conditions: both partners purified

B1: MtEsxB (culture filtrate protein CFP-10 of Mycobacterium tuberculosis) (natural protein)
chain: MAEMKTDAATLAQEAGNFERISGDLKTQIDQVESTAGSLQGQWRGAAGTAAQAAVVRFQEAANKQKQELDEISTNIRQAGVQYSRADEEQQQALSSQMGF
Kd: 34 µM

RADEEQQQALSSQMGF (source: synthetic peptide) [wild-type peptide corresponding to the C-terminal 16-residues of MtEsxB]
Kd: 55 µM
